One series addresses T1, WD40 domain of Gemin5 (Homo sapiens, UniProt Q8TEQ6).
T1 sequence (Q8TEQ6 1-739): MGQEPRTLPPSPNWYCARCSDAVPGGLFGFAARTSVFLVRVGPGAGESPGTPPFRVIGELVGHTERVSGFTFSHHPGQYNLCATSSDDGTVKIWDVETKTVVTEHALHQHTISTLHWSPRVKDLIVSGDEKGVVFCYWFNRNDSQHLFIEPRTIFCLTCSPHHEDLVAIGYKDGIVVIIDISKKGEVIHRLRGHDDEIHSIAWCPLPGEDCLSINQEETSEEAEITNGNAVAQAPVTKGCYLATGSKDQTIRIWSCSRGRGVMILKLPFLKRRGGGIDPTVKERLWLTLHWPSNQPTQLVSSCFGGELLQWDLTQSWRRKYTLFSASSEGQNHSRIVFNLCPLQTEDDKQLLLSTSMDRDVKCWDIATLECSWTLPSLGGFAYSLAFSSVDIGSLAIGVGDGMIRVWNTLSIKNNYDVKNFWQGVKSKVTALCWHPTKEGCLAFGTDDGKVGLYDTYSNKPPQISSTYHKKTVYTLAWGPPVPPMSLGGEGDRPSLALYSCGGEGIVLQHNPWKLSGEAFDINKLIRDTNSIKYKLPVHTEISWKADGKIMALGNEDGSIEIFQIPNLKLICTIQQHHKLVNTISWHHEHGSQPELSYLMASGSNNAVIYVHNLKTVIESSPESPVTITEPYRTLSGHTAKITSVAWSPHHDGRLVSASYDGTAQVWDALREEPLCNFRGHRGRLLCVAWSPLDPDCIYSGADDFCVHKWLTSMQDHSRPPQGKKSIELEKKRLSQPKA
Description: isothermal titration calorimetry. The format is binding.

Series [1] has as its target T2, Gemin5 WD40 domain (Homo sapiens, UniProt Q8TEQ6 1-739). Description: ITC. (Isothermal titration calorimetry measures the heat released or taken up as one component is titrated into another.)
Series [2] addresses T2, Gemin5 WD40 domain. Description: crystal structure.
The target in the next series is Gemin5 WD40 Y474A (Homo sapiens, UniProt Q8TEQ6 1-739, Y474A). Description: ITC.
A further series deals with Gemin5 WD40 E197A (Homo sapiens, UniProt Q8TEQ6 1-739, E197A). Description: ITC.
Chain of Gemin5 WD40 E197A (Q8TEQ6 1-739 E197A): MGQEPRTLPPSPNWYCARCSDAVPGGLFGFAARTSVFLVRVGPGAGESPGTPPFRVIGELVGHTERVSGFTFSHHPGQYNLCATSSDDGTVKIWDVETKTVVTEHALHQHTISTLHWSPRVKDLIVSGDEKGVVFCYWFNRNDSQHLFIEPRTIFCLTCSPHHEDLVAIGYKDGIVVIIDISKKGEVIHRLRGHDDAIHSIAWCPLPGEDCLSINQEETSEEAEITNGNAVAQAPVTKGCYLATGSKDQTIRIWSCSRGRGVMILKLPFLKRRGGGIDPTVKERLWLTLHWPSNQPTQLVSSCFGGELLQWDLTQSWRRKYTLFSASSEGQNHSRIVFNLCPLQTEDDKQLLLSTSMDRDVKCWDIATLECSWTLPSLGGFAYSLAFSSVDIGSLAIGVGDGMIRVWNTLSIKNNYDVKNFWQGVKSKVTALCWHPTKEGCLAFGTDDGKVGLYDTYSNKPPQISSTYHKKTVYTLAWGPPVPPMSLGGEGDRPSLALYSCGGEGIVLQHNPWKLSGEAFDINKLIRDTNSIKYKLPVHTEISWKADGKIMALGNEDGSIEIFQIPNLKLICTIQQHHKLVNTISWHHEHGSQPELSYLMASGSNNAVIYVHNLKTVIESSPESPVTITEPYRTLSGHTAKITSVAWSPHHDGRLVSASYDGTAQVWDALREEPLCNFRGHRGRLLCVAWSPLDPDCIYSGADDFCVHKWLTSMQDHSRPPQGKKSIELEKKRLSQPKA

For orientation: Kd means the concentration at which binding is half-saturated. The molecule `C[n+]1cn([C@@H]2O[C@H](COP(=O)(O)OP(=O)(O)OP(=O)(O)OC[C@H]3O[C@@H](n4cnc5c(=O)[nH]c(N)nc54)[C@H](O)[C@@H]3O)[C@@H](O)[C@H]2O)c2nc(N)[nH]c(=O)c21` [m^7GpppG] gave a Kd on WD40 domain of Gemin5 of 4 µM.
For AAUUCUUG (ssRNA) [pre-U4 (118-125) U122C], the binding result with Gemin5 WD40 domain [1] was “no binding”.
On the same count and under the same terms, the same measure for AACUUUUG (ssRNA) [pre-U4 (118-125) U120C]: “no binding”.
AAUCUUUG (ssRNA) [pre-U4 (118-125) U121C] returned a Kd with Gemin5 WD40 domain [1] of 11 ± 2 µM.
Consider AAUUGUUG (ssRNA) [pre-U4 (118-125) U122G], for which the binding result with Gemin5 WD40 domain [1] is “no binding”.
As for AAUUUUUGAG (ssRNA) [pre-U4 (118-127) crystal RNA], the binding result in the series with Gemin5 WD40 domain [2] is given as “binds”.
As to AAUUUUUG (ssRNA) [pre-U4 (118-125) Sm site], the binding result with Gemin5 WD40 Y474A is reported as “binds”. In the series with Gemin5 WD40 E197A, this molecule displayed a Kd of 40 ± 5 µM.

These data come from article PMC5131778 (Genes & Development, 2016).
